Test results: patent US11155612 (CENTRO DE INVESTIGACI N CIENT FICA Y DE EDUCACI N SUPERIOR …, dated 2021)

Biological target: VEGF (added at 4 ng/ml in the HUVEC/NHDF angiogenesis assay)
Assay: cell-based or functional assay

Sequence of VEGF (added at 4 ng/ml in the HUVEC/NHDF angiogenesis assay) (P15692 whole entry): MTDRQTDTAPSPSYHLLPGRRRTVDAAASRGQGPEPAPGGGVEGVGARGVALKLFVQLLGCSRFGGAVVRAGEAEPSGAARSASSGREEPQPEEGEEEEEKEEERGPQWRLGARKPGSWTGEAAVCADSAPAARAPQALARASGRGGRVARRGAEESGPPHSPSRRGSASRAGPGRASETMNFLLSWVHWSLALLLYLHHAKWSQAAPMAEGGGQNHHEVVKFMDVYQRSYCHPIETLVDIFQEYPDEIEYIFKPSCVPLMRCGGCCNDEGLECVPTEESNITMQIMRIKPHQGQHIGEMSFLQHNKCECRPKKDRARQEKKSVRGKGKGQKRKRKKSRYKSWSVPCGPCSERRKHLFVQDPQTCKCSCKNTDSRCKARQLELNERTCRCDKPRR

IC50 angiogenesis: network branching | IC50 angiogenesis: tube length | Binder
18 µg/mL | 18 µg/mL | vNAR V13 (parental sequence) (other) ASLDQTPRTATRETGESLSINCVLTDTSHILFGTKWLWNNPGSTDWESITIGGRYAESVNNQAKSFSLQIKDLTVEDSGTYYCKAQTIGRRKNLLPRPLVNGIAAMGYSSSDYDGAGTVLTVN
33 µg/mL | 21 µg/mL | vNAR R97A (clone M4) (other) ASLDQTPRTATRETGESLSINCVLTDTSHILFGTKWLWNNPGSTDWESITIGGRYAESVNNQAKSFSLQIKDLTVEDSGTYYCKAQTIGRRKNLLPAPLVNGIAAMGYSSSDYDGAGTVLTVN
11 µg/mL | 9 µg/mL | vNAR P98Y (clone M1), anti-VEGF vNAR of SEQ ID NO:1 (other) ASLDQTPRTATRETGESLSINCVLTDTSHILFGTKWLWNNPGSTDWESITIGGRYAESVNNQAKSFSLQIKDLTVEDSGTYYCKAQTIGRRKNLLPRYLVNGIAAMGYSSSDYDGAGTVLTVN
